Measurements from doi:10.1101/2025.01.22.634223 (bioRxiv, 2025).

B1: 6HIS::MYC::RAB1A::6HIS (natural protein)
chain: not shown
B2: GST::hGDI1 (natural protein)
chain: MDEEYDVIVLGTGLTECILSGIMSVNGKKVLHMDRNPYYGGESSSITPLEELYKRFQLLEGPPESMGRGRDWNVDLIPKFLMANGQLVKMLLYTEVTRYLDFKVVEGSFVYKGGKIYKVPSTETEALASNLMGMFEKRRFRKFLVFVANFDENDPKTFEGVDPQTTSMRDVYRKFDLGQDVIDFTGHALALYRTDDYLDQPCLETVNRIKLYSESLARYGKSPYLYPLYGLGELPQGFARLSAIYGGTYMLNKPVDDIIMENGKVVGVKSEGEVARCKQLICDPSYIPDRVRKAGQVIRIICILSHPIKNTNDANSCQIIIPQNQVNRKSDIYVCMISYAHNVAAQGKYIAIASTTVETTDPEKEVEPALELLEPIDQKFVAISDLYEPIDDGCESQVFCSCSYDATTHFETTCNDIKDIYKRMAGTAFDFENMKRKQNDVFGEAEQ

Assays:
[1] = molecular target: B2; experiment: pull-down
[2] = molecular target: 6HIS::MYC::PIAS1::6HIS (human, UniProt O75925 1-651); experiment: pull-down
6HIS::MYC::PIAS1::6HIS, sequence (O75925 whole entry): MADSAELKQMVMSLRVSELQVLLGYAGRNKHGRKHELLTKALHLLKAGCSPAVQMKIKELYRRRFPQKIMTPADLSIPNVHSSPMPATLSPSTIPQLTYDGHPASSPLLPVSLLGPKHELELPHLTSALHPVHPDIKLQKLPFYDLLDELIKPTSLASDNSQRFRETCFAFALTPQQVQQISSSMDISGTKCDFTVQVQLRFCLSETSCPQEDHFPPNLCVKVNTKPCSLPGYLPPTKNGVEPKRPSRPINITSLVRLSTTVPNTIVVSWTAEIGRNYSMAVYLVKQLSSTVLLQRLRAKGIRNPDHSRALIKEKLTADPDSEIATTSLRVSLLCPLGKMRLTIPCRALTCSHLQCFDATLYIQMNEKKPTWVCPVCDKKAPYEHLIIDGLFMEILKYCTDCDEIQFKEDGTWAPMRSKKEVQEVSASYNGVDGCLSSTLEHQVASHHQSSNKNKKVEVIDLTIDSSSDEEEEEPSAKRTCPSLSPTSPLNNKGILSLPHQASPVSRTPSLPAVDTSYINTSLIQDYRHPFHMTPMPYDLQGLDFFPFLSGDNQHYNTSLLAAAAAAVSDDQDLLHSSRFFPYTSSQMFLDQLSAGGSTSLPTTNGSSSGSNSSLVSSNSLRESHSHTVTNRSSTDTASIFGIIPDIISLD

Binder | binding result [1] | binding result [2]
B1 | binds | –
B2 | – | binds
